# ± gives the standard deviation of the averaged measurements.
# Columns and labels:
# Saccharomyces cerevisiae [1] = assay: protein stability index of tFT-peptide fusion (C-terminal peptide) (PSI (0-1 scale)); higher = more stable (slower turnover); conditions: genetic background: wild type; temperature: 30 C
# Saccharomyces cerevisiae [2] = assay: as above
# Description: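 MPS profiling in S. cerevisiae of the tFT-X12 degron library: putative degron peptides plus stable controls, 12 aa, fused to the C-terminus of a sfGFP-mCherry timer. Cells are FACS-sorted into 8 mCherry/sfGFP bins and deep-sequenced. PSI runs from 0 (unstable) to 1 (stable). Backgrounds are wild type, das1Δ and doa10Δ at 30 °C, and wild type, das1Δ, cdc34-1 and cdc53-1 at 37 °C; 2-3 technical replicates each.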
# [3] = genetic background: cdc34-1, temperature: 37 C
# [4] = genetic background: cdc53-1, temperature: 37 C
# [5] = genetic background: das1 deletion, temperature: 30 C
# [6] = genetic background: das1 deletion, temperature: 37 C
# [7] = genetic background: doa10 deletion, temperature: 30 C
# [8] = genetic background: wild type, temperature: 30 C
# [9] = genetic background: wild type, temperature: 37 C
# 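Also: PSI is a weighted mean of sequencing reads over stability bins, variants kept only with over 10 reads, mCherry proximal and sfGFP distal, peptide attached via GGGS linker.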
Sequence,protein stability index (Saccharomyces cerevisiae [1]),protein stability index (Saccharomyces cerevisiae [2]; [3]),protein stability index (Saccharomyces cerevisiae [2]; [4]),protein stability index (Saccharomyces cerevisiae [2]; [5]),protein stability index (Saccharomyces cerevisiae [2]; [6]),protein stability index (Saccharomyces cerevisiae [2]; [7]),protein stability index (Saccharomyces cerevisiae [2]; [8]),protein stability index (Saccharomyces cerevisiae [2]; [9])
PLSNLCRVLTFI,0.4608 ± 0.0029,0.557 ± 0.078,0.639 ± 0.0012,0.575 ± 0.03,0.6394 ± 0.0024,0.361 ± 0.0071,0.369 ± 0.015,0.526 ± 0.0056
GVVRKLCHWVVA,0.426 ± 0.04,0.476 ± 0.0049,0.516 ± 0.031,0.362 ± 0.027,0.525 ± 0.0015,0.286 ± 0.0046,0.322 ± 0.016,0.469 ± 0.013
LWFLDYVFICFL,0.382 ± 0.022,0.335 ± 0.017,0.347 ± 0.025,0.33 ± 0.034,0.452 ± 0.012,0.3673 ± 0.0034,0.299 ± 0.018,0.399 ± 0.011
TPPLPTTPTLNS,0.732 ± 0.025,0.641 ± 0.022,0.713 ± 0.022,0.718 ± 0.027,0.703 ± 0.021,0.722 ± 0.025,0.71 ± 0.011,0.684 ± 0.021
VMYRGVRISWFL,0.38459 ± 6.1e-05,0.576 ± 0.036,0.582 ± 0.008,0.424 ± 0.021,0.504 ± 0.014,0.343 ± 0.04,0.354 ± 0.036,0.449 ± 0.0086
FVVQSLNQMRLN,0.441 ± 0.034,0.693 ± 0.025,0.727 ± 0.02,0.656 ± 0.035,0.718 ± 0.019,0.354 ± 0.0096,0.379 ± 0.025,0.62 ± 0.025
NYVFALFYMVVA,0.254 ± 0.0054,0.196 ± 0.022,0.311 ± 0.031,0.224 ± 0.033,0.3449 ± 0.0014,0.19 ± 0.0089,0.217 ± 0.025,0.345 ± 0.03
VLAARVVLLRCR,0.2612 ± 0.0024,0.207 ± 0.0095,0.216 ± 0.033,0.199 ± 0.031,0.335 ± 0.0052,0.179 ± 0.0064,0.195 ± 0.028,0.3113 ± 0.001
FPWGRIFLRLRT,0.487 ± 0.049,0.34 ± 0.083,0.347 ± 0.025,0.47 ± 0.042,0.565 ± 0.01,0.5445 ± 0.0029,0.441 ± 0.015,0.5125 ± 0.0051
GFPFLCSFLLAS,0.382 ± 0.013,0.384 ± 0.0044,0.412 ± 0.0058,0.298 ± 0.04,0.472 ± 0.011,0.253 ± 0.005,0.291 ± 0.026,0.453 ± 0.005
PPLTRVPLSISA,0.413 ± 0.052,0.434 ± 0.0084,0.465 ± 0.016,0.292 ± 0.04,0.492 ± 0.012,0.267 ± 0.0075,0.305 ± 0.034,0.46 ± 0.005
LILRVLFLFEPC,0.42 ± 0.025,0.4385 ± 0.0028,0.4842 ± 0.0035,0.389 ± 0.026,0.511 ± 0.0049,0.395 ± 0.022,0.368 ± 0.031,0.481 ± 0.0066
ACVWVVALVWVF,0.213 ± 0.016,0.121 ± 0.005,0.249 ± 0.041,0.174 ± 0.035,0.303 ± 0.015,0.132 ± 0.0086,0.153 ± 0.01,0.243 ± 0.009
FFCCRLPCLFVL,0.252 ± 0.022,0.369 ± 0.016,0.407 ± 0.0051,0.363 ± 0.027,0.4824 ± 0.0016,0.174 ± 0.0061,0.174 ± 0.011,0.194 ± 0.0073
VFGFSLLTLLVL,0.439 ± 0.022,0.441 ± 0.0078,0.511 ± 0.025,0.386 ± 0.0081,0.5062 ± 0.0021,0.324 ± 0.011,0.347 ± 0.024,0.467 ± 0.019
PFAFLSLVLLLP,0.418 ± 0.0045,0.51 ± 0.017,0.5103 ± 0.0028,0.418 ± 0.029,0.5176 ± 0.0043,0.383 ± 0.027,0.35 ± 0.023,0.482 ± 0.02
VSVQVRCCPWVG,0.7153 ± 0.0063,0.679 ± 0.037,0.735 ± 0.013,0.622 ± 0.011,0.728 ± 0.014,0.618 ± 0.031,0.629 ± 0.016,0.709 ± 0.011
SYMWLVEVLLFI,0.264 ± 0.038,0.229 ± 0.0074,0.306 ± 0.0063,0.196 ± 0.028,0.386 ± 0.019,0.173 ± 0.012,0.189 ± 0.012,0.33 ± 0.0059
WFFRLFFLFFSG,0.383 ± 0.0048,0.34 ± 0.008,0.335 ± 0.019,0.4 ± 0.028,0.502 ± 0.019,0.563 ± 0.022,0.371 ± 0.019,0.412 ± 0.02
PCVPRLLPLQLS,0.252 ± 0.03,0.628 ± 0.019,0.795 ± 0.028,0.6546 ± 0.005,0.758 ± 0.03,0.216 ± 0.0089,0.233 ± 0.0069,0.363 ± 0.0044
GGSIKRFVILVL,0.406 ± 0.022,0.416 ± 0.027,0.489 ± 0.0076,0.3 ± 0.044,0.525 ± 0.017,0.259 ± 0.006,0.304 ± 0.024,0.482 ± 0.027
VHTAIFTSWRRL,0.491 ± 0.028,0.696 ± 0.048,0.738 ± 0.018,0.631 ± 0.04,0.7721 ± 0.001,0.481 ± 0.018,0.494 ± 0.017,0.685 ± 0.02
CFFLLLRVSLFP,0.239 ± 0.028,0.08149 ± 0.00038,0.112 ± 0.024,0.143 ± 0.032,0.257 ± 0.0087,0.142 ± 0.0027,0.145 ± 0.025,0.218 ± 0.011
LLVFSLLYPCLV,0.345 ± 0.021,0.324 ± 0.0049,0.362 ± 0.017,0.289 ± 0.031,0.419 ± 0.013,0.241 ± 0.0036,0.272 ± 0.02,0.3913 ± 0.0032
MQFVALFLVGLL,0.465 ± 0.0047,0.465 ± 0.041,0.5087 ± 0.001,0.346 ± 0.049,0.5245 ± 0.0022,0.308 ± 0.0095,0.354 ± 0.023,0.509 ± 0.0056
DVWEHLHKQHNM,0.499 ± 0.085,0.704 ± 0.015,0.765 ± 0.032,0.699 ± 0.024,0.753 ± 0.032,0.274 ± 0.021,0.348 ± 0.053,0.62 ± 0.032
VPQMLVSVCLSN,0.348 ± 0.011,0.301 ± 0.014,0.376 ± 0.045,0.287 ± 0.032,0.423 ± 0.021,0.219 ± 0.014,0.26 ± 0.029,0.392 ± 0.033
GYRFSILSILRV,0.482 ± 0.025,0.581 ± 0.031,0.611 ± 0.014,0.513 ± 0.024,0.627 ± 0.012,0.488 ± 0.017,0.47 ± 0.023,0.612 ± 0.016

# — the supplement of paper PMC10724198
